Experimental data from paper PMC6727741.

Target: IFT dynein heavy chain (D1bHC) (Chlamydomonas reinhardtii (endogenous in cc4533 and wdr92-1 cells)) (UniProt Q9SMH5)
Experiment: SEC

Substance: IFT dynein heavy chain (D1bHC), Q9SMH5 1-4334
- stoichiometry N: 2
